PMC6392109

Target: T1, YFP-DAT, Q01959
T1 chain: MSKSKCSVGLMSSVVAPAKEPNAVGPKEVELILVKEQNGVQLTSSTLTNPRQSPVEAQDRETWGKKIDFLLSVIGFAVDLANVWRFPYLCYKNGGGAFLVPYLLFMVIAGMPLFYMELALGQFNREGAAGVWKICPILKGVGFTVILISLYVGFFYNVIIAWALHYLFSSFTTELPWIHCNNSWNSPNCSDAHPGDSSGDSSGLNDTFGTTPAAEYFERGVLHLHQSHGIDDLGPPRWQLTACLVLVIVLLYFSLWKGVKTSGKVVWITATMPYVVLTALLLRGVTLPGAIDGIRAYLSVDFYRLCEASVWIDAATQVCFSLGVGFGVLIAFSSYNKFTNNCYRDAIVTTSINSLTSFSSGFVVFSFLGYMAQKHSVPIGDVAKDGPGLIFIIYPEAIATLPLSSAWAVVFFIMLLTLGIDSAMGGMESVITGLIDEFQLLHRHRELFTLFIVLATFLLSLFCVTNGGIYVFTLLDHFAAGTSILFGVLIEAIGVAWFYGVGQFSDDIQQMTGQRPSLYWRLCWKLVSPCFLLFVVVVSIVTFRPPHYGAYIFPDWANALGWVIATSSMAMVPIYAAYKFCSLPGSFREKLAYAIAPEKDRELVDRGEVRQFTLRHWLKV
Experiment: FRET or BRET; CFP- and YFP-labelled proteins co-expressed in HEK293 cells; three-filter method, 63x oil immersion objective; FRET efficiency, n = 20-30 per group
Settings: remark: other sources report otherwise

FRET efficiency: 7.62
B1: CFP-Flot1, O75955 1-427 (natural protein)
chain: MFFTCGPNEAMVVSGFCRSPPVMVAGGRVFVLPCIQQIQRISLNTLTLNVKSEKVYTRHGVPISVTGIAQVKIQGQNKEMLAAACQMFLGKTEAEIAHIALETLEGHQRAIMAHMTVEEIYKDRQKFSEQVFKVASSDLVNMGISVVSYTLKDIHDDQDYLHSLGKARTAQVQKDARIGEAEAKRDAGIREAKAKQEKVSAQYLSEIEMAKAQRDYELKKAAYDIEVNTRRAQADLAYQLQVAKTKQQIEEQRVQVQVVERAQQVAVQEQEIARREKELEARVRKPAEAERYKLERLAEAEKSQLIMQAEAEAASVRMRGEAEAFAIGARARAEAEQMAKKAEAFQLYQEAAQLDMLLEKLPQVAEEISGPLTSANKITLVSSGSGTMGAAKVTGEVLDILTRLPESVERLTGVSISQVNHKPLRTA
